No end group written: not given here.
B1: CCR5 5P2 phosphopeptide (peptide)
peptide: APERASSVYTRSTGEQEISVGL
modifications: not fully specified; five-fold phosphorylated; comprising pT343; whole pattern in Figure 1C

Tests used:
[1] = target: T1, arrestin2^1-393 (human); experiment: NMR titration
T1 chain: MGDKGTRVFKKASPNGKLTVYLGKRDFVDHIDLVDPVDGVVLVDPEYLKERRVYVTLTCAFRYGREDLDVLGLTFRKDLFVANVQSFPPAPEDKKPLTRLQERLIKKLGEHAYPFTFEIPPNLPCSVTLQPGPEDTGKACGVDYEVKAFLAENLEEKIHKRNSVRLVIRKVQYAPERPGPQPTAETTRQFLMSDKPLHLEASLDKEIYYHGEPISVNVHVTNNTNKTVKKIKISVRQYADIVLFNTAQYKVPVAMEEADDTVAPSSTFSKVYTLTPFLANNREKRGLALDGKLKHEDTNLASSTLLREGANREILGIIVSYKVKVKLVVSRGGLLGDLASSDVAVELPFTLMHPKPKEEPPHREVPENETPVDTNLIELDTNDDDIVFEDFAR

[2] = target: T2, arrestin2^1-418 (C150L, C242V, C251V, C269S) (human); experiment: SEC
T2 chain: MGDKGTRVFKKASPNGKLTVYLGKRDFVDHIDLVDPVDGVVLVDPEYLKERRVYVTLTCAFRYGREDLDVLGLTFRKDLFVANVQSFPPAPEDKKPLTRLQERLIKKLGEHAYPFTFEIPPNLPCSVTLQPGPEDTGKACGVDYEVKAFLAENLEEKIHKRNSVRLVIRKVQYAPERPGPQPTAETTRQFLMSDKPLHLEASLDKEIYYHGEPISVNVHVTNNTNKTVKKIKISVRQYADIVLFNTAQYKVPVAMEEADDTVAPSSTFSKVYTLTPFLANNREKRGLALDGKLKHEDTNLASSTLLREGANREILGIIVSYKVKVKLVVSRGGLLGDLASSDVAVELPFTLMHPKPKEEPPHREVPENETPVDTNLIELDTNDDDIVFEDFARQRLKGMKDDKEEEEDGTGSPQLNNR

[3] = target: T3, arrestin2^1-359 (human); experiment: crystal structure
T3 chain: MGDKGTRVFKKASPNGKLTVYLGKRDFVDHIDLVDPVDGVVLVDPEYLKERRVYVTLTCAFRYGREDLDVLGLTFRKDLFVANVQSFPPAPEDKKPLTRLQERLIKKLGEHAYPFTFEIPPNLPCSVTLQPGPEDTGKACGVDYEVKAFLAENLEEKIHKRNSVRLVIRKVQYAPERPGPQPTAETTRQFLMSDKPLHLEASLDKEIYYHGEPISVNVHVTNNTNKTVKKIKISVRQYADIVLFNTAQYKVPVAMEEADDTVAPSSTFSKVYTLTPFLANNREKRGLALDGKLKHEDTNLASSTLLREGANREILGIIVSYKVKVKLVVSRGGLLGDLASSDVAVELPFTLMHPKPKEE

| Binder | Kd [1] [µM] | binding result [2] | binding result [3] | fold lower affinity (than 6P or V2Rpp) [1] [fold] |
| --- | --- | --- | --- | --- |
| APERASSVYTRSTGEQEISVGL (also: five-fold phosphorylated, lacking pT343, sites not given here) [CCR5 5P1 phosphopeptide] | 147 ± 7 | – | – | – |
| B1 | 54 ± 6 | – | – | – |
| APERASSVYTRSTGEQEISVGL (also: phosphopeptide (6P), sites not given here) [CCR5 6P phosphopeptide] | 45 ± 6 | binds | binds | – |
| APERASSVYTRSTGEQEISVGL (also: three-fold phosphorylated, sites not given here) [CCR5 3P1 phosphopeptide] | > 100 | – | – | – |
| APERASSVYTRSTGEQEISVGL (also: phosphopeptide (4P), sites not given here) [CCR5 4P phosphopeptide] | > 100 | – | binds | – |
| APERASSVYTRSTGEQEISVGL (also: phosphopeptide (3P2), sites not given here) [CCR5 3P2 phosphopeptide] | > 100 | binds | – | > 4 |
